Among the data in PMC4831154, “Expression and characterization of a novel 1,3-regioselective cold-adapted lipase from Rhizomucor endophyticus suitable for biodiesel synthesis” (Biotechnology for Biofuels, 2016) are Km and kcat/Km values, retold here.

What all share (test): purified protein
Format in all cases: biochemical, Mucor endophyticus
Conditions in all cases: 50 mM citrate buffer pH 6.0, 40 °C, 5 min

Substrate in series [1]: CCCCCCCC(=O)Oc1ccc([N+](=O)[O-])cc1
Substrate in series [2]: CCCCCCCCCCCC(=O)Oc1ccc([N+](=O)[O-])cc1
Substrate in series [3]: CCCCCCCCCCCCCC(=O)Oc1ccc([N+](=O)[O-])cc1

B1: ReLipA (Mucor endophyticus) (protein)
chain: PAAGTKGETSSAAAPHNNATMTASSYILPPIIPSRTKPGNPAFKGDVNAEAESIAKNKKWYEDHGGNFKNITKRDTETVGGMTMDLPANAPPVTTSTGSGVVTASAAQIANFKLYAGIASTAYCRGVVPLGSWTCNNCLKYVPDGKLLVTFSSLLADTNGFVLRSDSQKTIHLVFRGTNSIRSAITDLIFDLATYSPVSGAKVHRGFLASYKEVVNTYFPVVQAQLTAYPSYKVVISGHSLGGAQALLAGMDLYQRDKRLSPSNLSIYTVGCPRVGNPAFAYYVDSTGIPFSRSVNDRDIVPHVPPQAFGYLHPGVEAWDISSRVQICTANIETNKCSNSIVPFTSFVDHLTYYGINEGLCL
notes: ORF 1167 bp; SP-Sepharose purified
Consider B1, for which the figures for the Km in the series “purified protein [1]”, in “purified protein [2]” and in the series “purified protein [3]” were 2300 ± 210 µM, 640 ± 60 µM and 100 ± 10 µM, respectively. Also, the kcat/Km in the series “purified protein [1]” is 387 M⁻¹ s⁻¹; in the series “purified protein [2]” it was 416 M⁻¹ s⁻¹; in “purified protein [3]”, 1790 M⁻¹ s⁻¹.

A word on the Km: it is the substrate concentration at which the rate is half of its maximum. Broadly, the kcat/Km is the second-order rate constant that governs catalysis at low substrate concentration.
